Where two headings read alike, the source gives them in different places.
Columns and labels:
[1] = target: T1, oligomerized biotinylated synthetic human Aβ1-42 peptide (human, UniProt P05067 672-713, biotinylated (position not given))
[2] = target: T1, oligomerized biotinylated synthetic …; remark: listed apart in the source

- Kd [1]: 250 nM
- Kd [2]: 206 ± 65 nM
B1: human LilrB2 (leukocyte immunoglobulin-like receptor B2) expressed on HEK293 cells (receptor, UniProt Q8N423 22-597, looked up)
chain: QTGTIPKPTLWAEPDSVITQGSPVTLSCQGSLEAQEYRLYREKKSASWITRIRPELVKNGQFHIPSITWEHTGRYGCQYYSRARWSELSDPLVLVMTGAYPKPTLSAQPSPVVTSGGRVTLQCESQVAFGGFILCKEGEDEHPQCLNSQPHARGSSRAIFSVGPVSPNRRWSHRCYGYDLNSPYVWSSPSDLLELLVPGVSKKPSLSVQPGPVMAPGESLTLQCVSDVGYDRFVLYKEGERDLRQLPGRQPQAGLSQANFTLGPVSRSYGGQYRCYGAHNLSSECSAPSDPLDILITGQIRGTPFISVQPGPTVASGENVTLLCQSWRQFHTFLLTKAGAADAPLRLRSIHEYPKYQAEFPMSPVTSAHAGTYRCYGSLNSDPYLLSHPSEPLELVVSGPSMGSSPPPTGPISTPGPEDQPLTPTGSDPQSGLGRHLGVVIGILVAVVLLLLLLLLLFLILRHRRQGKHWTSTQRKADFQHPAGAVGPEPTDRGLQWRSSPAADAQEENLYAAVKDTQPEDGVEMDTRAAASEAPQDVTYAQLHSLTLRRKATEPPPSQEREPPAEPSIYATLAIH
